Data: the nanobody polyreactivity screen of Harvey et al. (2022)

Assay: yeast display, Sf9 membrane polyspecificity reagent, FACS + sequencing; frameworks hold sequencing errors
Summary of the method: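 Genes from sorted yeast were amplified by colony PCR, read by MiSeq 2 × 250 sequencing and filtered on CDR length. These cells carried a synthetic nanobody library in Saccharomyces cerevisiae BJ5465 and were sorted by FACS into low and high (top ~1%) gates on anti-HA and streptavidin fluorescence. Polyreactivity is labelled according to the gate of origin.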

Sequence	polyreactivity (PSR sort gate)
QVQLVESCGGLVQAGGSLRLSCAASGSTLATYAMGWYRQAPWKERELDAVITRGGRTYYADSVKGRFTISRDNAKNTVYLQMNSLKPEDTAVFYCNATRAGENPDGGDEYWGQGTQVTVSS	high polyreactivity
QVQLVESCGGLVQAGGSLRLSCAASRSTFVKYTMGWYRQAPGKERELVATITWSGGSTYYADSVKGRFTISRDNAKNTVYLQLMSLKPEDTAVYYGAIDSGVYRTYQGRWYYYTDFYWGQGTQVTVSS	low polyreactivity
QVQLVESCGGLVQAGGSLRLSCAATGRIFAGYVMGWYRPAHGKERELVAAISWRGGRTYYADSVKGRFTISRDNAKNTVYLQMISLKPEDTAVYYCNAPYAVGNPADDYWGQGTQVTVSS	high polyreactivity
QVQLVESCGGLVQAGGSLRLSCDASGSIFIKKTMGWYRQAPGKEREMVAAISWSGGSTYYADSVKGRFTISRDNAKNTVYLQMNSLKPEDTAVYYCNAYYFWRTWFDTYDYWGQGTQVTVSS	high polyreactivity
QVQLVESCGGLVQAGGSLRLSSAASGSIFEYNAMGWYRQEPGKERELVGAITSTDSTYADSVKGRFTISRDNAKNTVYLQMNSLKPEDTAVYYCAAEDVIYYLTGQWREYDYWGQGTQVTVSS	low polyreactivity
QVQLVESCVVLVQAGGSLRLSCAASGSIFGYYAMGWYRQAPGKERELVAAISDGGTITYYADSVKGRFTISRDHAKNTVYLQMNSLKPEVTAVYYCAARSPPRYYEHRFYYWGQGTQVTVSS	high polyreactivity
QVQLVESGAGIVQAGGSLRLSCAASGRTFLDYTMGWYRQAPGKERELVAAIRTSAGSTYYADSVKGRFTISRDNAKKTVYLQLNSLKPEDTAVYYCAAVYYVHYYYSYDYWGQGTQVTVSS	low polyreactivity
QVQLVESGAGLFQAGGSLRLSCAASGRIFNQYGMAWYRQAPGKERELVAAIRSGDSTNYADSVKGRFTISRDNAKNTVFLQMNSLKPEVTAVYYCARDRPGDYDGYDYCGQGTQVTVSS	low polyreactivity
QVQLVESGAGLFQAGGSLRLSCAASGRTFVKNAMAWYRQAPGKERELVAAISTSGGRTYYADSVKGRFTISRDNAKKTVYLQMNSLKPEDTAVYYCGAVLYATRPVYGFDSCGQGTQVTVSS	high polyreactivity
QVQLVESGAGLVEAGASLRLSCAASGSNFRINAMGLYRQAPGKERELVAAITASGGSTYADSVKGRFTISRDNAKNTVYLQMNSLKPEDTAVYDCAARYFPRHRYYFWGQVTQVTVSS	high polyreactivity
QVQLVESGAGLVHAGGSLRLSCAASGSIFEGYAMGWYRQAPGKERELVARITSDDDSTYYADSVKGRFTNSRDTAKNTVYLQMYSLKPEDTAVFYCNADYYWTTLAMDSWGQGTQVTVSS	low polyreactivity
QVQLVESGAGLVHAGGSLRLSCASSGRTFAKYAMGWYRQAPGKERELVAAISGRSGSTYYADSVKGRFTISRDNPKNTVYLQMNSLKPEDTAVYYCAASGGSRYDWVQGTQVTVSS	high polyreactivity
QVQLVESGAGLVMAGGSLRLSCAASGRTISIYAMGWYRQAPGKERQLVAAISQSSSITYYADSVKGRFTLSRDNANNTVYLQMISLKPEDTACYYCNAVVLRYQGSWLEYWGQGTQVTVSS	low polyreactivity
QVQLVESGAGLVQAGCRLRLSCASSGIIFSPNAIGWYRQAPGKERELVAAISKRGGSTYYADSVKGRFTISRDNAKNTVYLQLHSLKQEDTAVYYCAKRQQQSSGYDYWGQGTQVTVSS	high polyreactivity
QVQLVESGAGLVQAGGRLRLRCDASGFIFRYYAMGWYRQAPGKERELVAAISESGASTYYADSVKGRFTISRDNAKNTVYLQMNSLKPEDTAVYYCAAKPRKSGPYYFYDLNYWGQGTQVTVSS	high polyreactivity
QVQLVESGAGLVQAGGRLRLSCADSGYIFKSYAIGWYRQAPGKEREFVAAISWSGGSTYADSVKGRFTISRDNAKNTVYLQMNSLKPEDTAVYSCAAVDYYYYGVYSSWYEYWGQGTQVTVSS	low polyreactivity
QVQLVESGAGLVQAGGRLRLSCAPSGSTFIYNAMGWYRQAPGKERELVASITGGTSTNYADSVKGRFTISRDNAKNTVYLQMNSLKPEDTAVYYCAAVWVWGEYDYWGQGTQVTVSS	low polyreactivity
QVQLVESGAGLVQAGGSLRLSCAASGFIFVKYVMGWYRQAPGKERELDATITNGVSTNYADSVKGRFTISRDNAKNTVYLQMNSLKPEDTAVYYCNTGSTAWYFSGDYWGQGTQVTVSS	low polyreactivity
QVQLVESGAGLVQAGGSLRLSCAASGFTFKSNAMGWYRQAPGKERELVATISWGGASTSYADSVKGRFTISRDNAKNNVYLQMNSLKPEDTAVYYCKVRAQRRHGGYDHWGLGTQVTVSS	low polyreactivity
QVQLVESGAGLVQAGGSLRLSCAASGIIFASNAMGWYRQAPGKERELLATINWTDSSTYYADSVKGRFTISRDNAKNTVYLQMNSLKPEDTAVYYCNAVPHWFYRYGRYDYWGQGTQVTVSS	low polyreactivity
QVQLVESGAGLVQAGGSLRLSCAASGIIFTDYAMGWYRQAPGKERELVAANSSGGGSTYYADSVKGRFTISRDNAKNSVYLQLNSLKPDDTAVYDCAAQSSGSYGFDHWGQGTQVTVSS	high polyreactivity
QVQLVESGAGLVQAGGSLRLSCAASGRIFQYNAMGWYRQAPGKERELVAAISYSTTRTYYAESVKSRFTISRDNAKITVYLQMKSLKPEVSGVYYCAARGYFWSSYKYDYWGLGTQVTVSS	high polyreactivity

Sequence	polyreactivity (PSR sort gate)
QVQLVESGAGLVQAGGSLRLSCAASGRIFVYNTMGWYRQAPGKEREFVAAITRSGGSTTYADSVKGRFTISRANAKNTVYLQRNSLKPEDTAVYYCAAGPFISYWVSRFGYWGQGTQVTVSS	high polyreactivity
QVQLVESGAGLVQAGGSLRLSCAASGRTFFVNAMGWYRQAPGKERELVATITFSGDSTYYADSVKGRFTISRDNAKNTVFLQMNSLKPEDTAVYYCAARTGYGYTRYEYWGQGTQVTVSS	high polyreactivity
QVQLVESGAGLVQAGGSLRLSCAASGRTFSRNAMGWYRQPPGKERELVATISRGGGITFYADSVKGRYTISRDNAKNTVYLQMNSLKPEDTAVYYCNADVRYVGLRRIVDYWGQGTQVTVSS	high polyreactivity
QVQLVESGAGLVQAGGSLRLSCAASGRTLTYNAMGWYRQAPGKEREFVAAISVGGGSTYADSVKGRFTISRDNAKNTVYLQMNRLKPEDTAVYYCAAAYTKLYYYWGQGTQVTVSS	low polyreactivity
QVQLVESGAGLVQAGGSLRLSCAASGSIINRNAMGGYRQAPGKERELVAAITRRGGSTYYADSVKGRFTISRDNAKNTVYLQKYSLKPEDTAVYYCNAVKALSSWSYEYWGQGTQGTVSS	high polyreactivity
QVQLVESGAGLVQAGGSLRLSCAASGSSSLYNAMGWYRQAPGKERELVAAISSGGSTNYADSVKGRFTISRENAKNNVYLQMNSLQPEDTAVYYCAAVTVRRVSCAQYKQYDYWGLGTQVTVSS	high polyreactivity
QVQLVESGAGLVQAGGSLRLSCAASGSTFESNTMGWYRQAPGKERELVAAISYSGGRTYYADSVKGRFTISRDNAKNTVYLQMNSLKPEDTAVYYCNADLYPYYWYTTGEFGYWGQGTQVTVSS	high polyreactivity
QVQLVESGAGLVQAGGSLRLSCAASGSTFKPNVMGWYRQAPGKERELVAAITSTDDRTYYADSVKGRFTISRDNAKNTVYLQMNSLKPEDTAVYYCAVESLRDDFEYDYWGQGTQVTVSS	low polyreactivity
QVQLVESGAGLVQAGGSLRLSCAASGSTFYMYAMGWDRTATGKERELLADISLSGVSTYYADSVKGRFTFSRDNAKHTVYLQMNSLKPEDTAVYYCAADVFYPGPWSYEYWGQGTHVTVSS	low polyreactivity
QVQLVESGAGLVQAGGSLRLSCAASGSTLVTNAMGWYRQAPGKERELVAAITFSGGTTYYADSVKGRFTISRDNAKNTVYLQMNSLKPEDTAVYYCAAEIWLEYVGYDYWGQGTQVTVSS	high polyreactivity
QVQLVESGAGLVQAGGSLRLSCAASGYIFYKNAMGWYRQAPGKERELVAAISTRGGSTYYADSVKGRFTISRDNAQNTVYLHMNSLKPEDTAVNYCAASQNRRDWGQGTQVTVSS	high polyreactivity
QVQLVESGAGLVQAGGSLRLSCAASGYTFSPNDMGWYRQAPGKERELVAAITSSVGSTYYADSVKGRFTISRDNAKNTVYLQMNSLKPEDTAVYYCNKQDSSYYISGGGDYDYWGQGTQVTVSS	low polyreactivity
QVQLVESGAGLVQAGGSLRLSCAASVSTLDLYAMGWYRQAPGKERELVAYISWSGGSTYYADSVKGRFTISRDNAKNTVYLQMNSLKPEDTAVYYCAAGNITPYRYYHGYYQSIYDYWGQGTQVTVSS	low polyreactivity
QVQLVESGAGLVQAGGSLRLSCAAYGRIFGIYALGWYRQAPGKEREFVAAISDRSGSRTYYADSVKGRFTISRDNAKNTVYLQINSLKPEDTAVYYCAAGILRWKDRWFEYWGQGTQVTVSS	high polyreactivity
QVQLVESGAGLVQAGGSLRLSCAPSGRIFEYNAMGWYRQAPGKESELVAAIRSGGGSTYYADSVKGRFTISRDNAKNTVYLQMNSLNPEDTAVYYCAARRKRVSFYAEYDYWGQGTQVTVSS	low polyreactivity
QVQLVESGAGLVQAGGSLRLSCDASGLIFAGYAMGWYRQAPGTERELVAAITWRGGRTYADSVKGRFTISRDNAKNTVYLQINSLKPEDTAVYYCNKDPWYVFHPRGQFLFDYWGQGTQVTVSS	low polyreactivity
QVQLVESGAGLVQAGGSLRLSCSAYGFIFGFYAMGWSRQAPGKERELVADITSSGGSTYYADSVKGRFTLSRDNAKNTVYLQMNSLKPEDTAVYYCAADGWWHNFYPGNGLDYWGQGTQVTVSS	low polyreactivity
QVQLVESGAGLVQAGGSLRLSFAASGRTFVSYDMGWYRQATGKERELVAAITYSGGSSTYYADSVKGRFTISRDNAKNTVYLQMNSLKPEDTAVYYCAVYGGGSRNFGDVGYWGQGTLVTVSS	low polyreactivity
QVQLVESGAGLVQAGGSLRLTCAASGSTFLDMGLYRQAPAKEREFVASISLSGGSTYYADSVKGRFTISRDNAKNTVYLQMNSLKPEDTAVYYCNAEAWWYFWFDYWGQGTQVTVSS	low polyreactivity
QVQLVESGARIVQAGGSLRLSCAAYGSTFGRYGMGWYRQAPGKERELVAAISRAGGTNYADSVKGRITISRDNAKNTVYLQMNSLKPEDTAVYYCNARWYYVLYDYWGQGTQVTVSS	low polyreactivity
QVQLVESGARLVQAGGSLRLSCAASGRTVAYNAMGWSREAAGKEREVDPAISRRGGSTYYADSVKGRFTISRDNAKNTVNLQMNSLKPEDTAVYYCASRRLRRASSLDYWGQGSQVTVSS	high polyreactivity
